Data from US20220259318A1 (Hoffmann-La Roche, published 2022).
Residue numbers refer to the chain shown, from its start. Several values for one entry are separate records, joined by “and”; a condition that tells them apart may be missing. Equal values may be shown once.

B1: P1AE5739 (antibody, V domains shown)
VH: EVQLVESGGGVVQPGRSLRLSCAASGFSFSNYGMAWVRQAPGKGLEWVASISTGGGNTYYRDSVKGRFTISRDNAKNTLYLQMNSLRAEDTAVYYCTRHDRGGLYWGQGTMVTVSS
VL: DIVMTQSPLSLPVTPGEPASISCRSSKSLLHSNGITYVYWYLQKPGQSPQVLIYRMSNLASGVPDRFSGSGSGTDFTLKISRVEAEDVGVYHCGQLLENPYTFGQGTKLEIK
notes: Humanized 5F11 IgG; PGLALA Fc implied by the CAR-J assay; also called 5F11_VH1b + 5F11_VL1a
B2: P1AE5742 (antibody, V domains shown)
VH: B1 VH
VL: DIVMTQSPDSLAVSLGERATINCKSSKSLLHSNGITYVYWYQQKPGQPPKLLIYRMSNLASGVPDRFSGSGSGTDFTLTISSLQAEDVAVYHCGQLLENPYTFGQGTKLEIK
notes: Humanized 5F11 IgG; PGLALA Fc implied by the CAR-J assay; also called 5F11_VH1b + 5F11_VL2b
B3: P1AE5743 (antibody, V domains shown)
VH: B1 VH
VL: EIVLTQSPGTLSLSPGERATLSCRASKSLLHSNGITYVYWYQQKPGQAPRLLIYRMSNLASGIPDRFSGSGSGTDFTLTISRLEPEDFAVYHCGQLLENPYTFGQGTKLEIK
notes: Humanized 5F11 IgG; PGLALA Fc implied by the CAR-J assay; also called 5F11_VH1b + 5F11_VL2c
B4: P1AE5751 (antibody, V domains shown)
VH: B1 VH with R61A
VL: B1 VL with Q47K
notes: Humanized 5F11 IgG; PGLALA Fc implied by the CAR-J assay; also called 5F11_VH1d + 5F11_VL1b
B5: P1AE5738 (antibody, V domains shown)
VH: B1 VH with E1Q, A75S
VL: B3 VL
notes: Humanized 5F11 IgG; PGLALA Fc implied by the CAR-J assay; also called 5F11_VH1a + 5F11_VL2c
B6: P1AE5762 (antibody, V domains shown)
VH: B1 VH with V11L, R16G, R61A
VL: B1 VL with V51L, L59R
notes: Humanized 5F11 IgG; PGLALA Fc implied by the CAR-J assay; also called 5F11_VH2d + 5F11_VL2a
B7: P1AE5753 (antibody, V domains shown)
VH: B1 VH with R61A
VL: B2 VL
notes: Humanized 5F11 IgG; PGLALA Fc implied by the CAR-J assay; also called 5F11_VH1d + 5F11_VL2b
B8: P1AE5736 (antibody, V domains shown)
VH: B1 VH with E1Q, A75S
VL: B1 VL with V51L, L59R
notes: Humanized 5F11 IgG; PGLALA Fc implied by the CAR-J assay; also called 5F11_VH1a + 5F11_VL2a
B9: P1AE5735 (antibody, V domains shown)
VH: B1 VH with E1Q, A75S
VL: B1 VL with Q47K
notes: Humanized 5F11 IgG; PGLALA Fc implied by the CAR-J assay; also called 5F11_VH1a + 5F11_VL1b
B10: P1AE5756 (antibody, V domains shown)
VH: B1 VH with V11L, R16G
VL: B1 VL with Q47K
notes: Humanized 5F11 IgG; PGLALA Fc implied by the CAR-J assay; also called 5F11_VH2b + 5F11_VL1b
B11: P1AE5740 (antibody, V domains shown)
VH: B1 VH
VL: B1 VL with Q47K
notes: Humanized 5F11 IgG; PGLALA Fc implied by the CAR-J assay; also called 5F11_VH1b + 5F11_VL1b
B12: P1AE5757 (antibody, V domains shown)
VH: B1 VH with V11L, R16G
VL: B1 VL with V51L, L59R
notes: Humanized 5F11 IgG; PGLALA Fc implied by the CAR-J assay; also called 5F11_VH2b + 5F11_VL2a
B13: P1AE5755 (antibody, V domains shown)
VH: B1 VH with V11L, R16G
VL: B1 VL
notes: Humanized 5F11 IgG; PGLALA Fc implied by the CAR-J assay; also called 5F11_VH2b + 5F11_VL1a
B14: P1AE5746 (antibody, V domains shown)
VH: B1 VH with E1Q, R61A, A75S
VL: B1 VL with V51L, L59R
notes: Humanized 5F11 IgG; PGLALA Fc implied by the CAR-J assay; also called 5F11_VH1c + 5F11_VL2a
B15: P1AE5760 (antibody, V domains shown)
VH: B1 VH with V11L, R16G, R61A
VL: B1 VL
notes: Humanized 5F11 IgG; PGLALA Fc implied by the CAR-J assay; also called 5F11_VH2d + 5F11_VL1a
B16: P1AE5734 (antibody, V domains shown)
VH: B1 VH with E1Q, A75S
VL: B1 VL
notes: Humanized 5F11 IgG; PGLALA Fc implied by the CAR-J assay; also called 5F11_VH1a + 5F11_VL1a
B17: P1AE5749 (antibody, V domains shown)
VH: B1 VH with E1Q, R61A, A75S
VL: B3 VL
notes: Humanized 5F11 IgG; PGLALA Fc implied by the CAR-J assay; also called 5F11_VH1c + 5F11_VL2c
B18: P1AE5754 (antibody, V domains shown)
VH: B1 VH with R61A
VL: B3 VL
notes: Humanized 5F11 IgG; PGLALA Fc implied by the CAR-J assay; also called 5F11_VH1d + 5F11_VL2c
B19: P1AE5758 (antibody, V domains shown)
VH: B1 VH with V11L, R16G
VL: B2 VL
notes: Humanized 5F11 IgG; PGLALA Fc implied by the CAR-J assay; also called 5F11_VH2b + 5F11_VL2b
B20: P1AE5761 (antibody, V domains shown)
VH: B1 VH with V11L, R16G, R61A
VL: B1 VL with Q47K
notes: Humanized 5F11 IgG; PGLALA Fc implied by the CAR-J assay; also called 5F11_VH2d + 5F11_VL1b
B21: P1AE5737 (antibody, V domains shown)
VH: B1 VH with E1Q, A75S
VL: B2 VL
notes: Humanized 5F11 IgG; PGLALA Fc implied by the CAR-J assay; also called 5F11_VH1a + 5F11_VL2b
B22: P1AE5752 (antibody, V domains shown)
VH: B1 VH with R61A
VL: B1 VL with V51L, L59R
notes: Humanized 5F11 IgG; PGLALA Fc implied by the CAR-J assay; also called 5F11_VH1d + 5F11_VL2a
B23: P1AE5764 (antibody, V domains shown)
VH: B1 VH with V11L, R16G, R61A
VL: B3 VL
notes: Humanized 5F11 IgG; PGLALA Fc implied by the CAR-J assay; also called 5F11_VH2d + 5F11_VL2c
B24: P1AE5750 (antibody, V domains shown)
VH: B1 VH with R61A
VL: B1 VL
notes: Humanized 5F11 IgG; PGLALA Fc implied by the CAR-J assay; also called 5F11_VH1d + 5F11_VL1a
B25: P1AE5747 (antibody, V domains shown)
VH: B1 VH with E1Q, R61A, A75S
VL: B2 VL
notes: Humanized 5F11 IgG; PGLALA Fc implied by the CAR-J assay; also called 5F11_VH1c + 5F11_VL2b
B26: P1AE5759 (antibody, V domains shown)
VH: B1 VH with V11L, R16G
VL: B3 VL
notes: Humanized 5F11 IgG; PGLALA Fc implied by the CAR-J assay; also called 5F11_VH2b + 5F11_VL2c

biological target: T1, human GPRC5D (human, UniProt Q9NZD1 1-345); test: cell-based or functional assay
T1 sequence (Q9NZD1 whole entry): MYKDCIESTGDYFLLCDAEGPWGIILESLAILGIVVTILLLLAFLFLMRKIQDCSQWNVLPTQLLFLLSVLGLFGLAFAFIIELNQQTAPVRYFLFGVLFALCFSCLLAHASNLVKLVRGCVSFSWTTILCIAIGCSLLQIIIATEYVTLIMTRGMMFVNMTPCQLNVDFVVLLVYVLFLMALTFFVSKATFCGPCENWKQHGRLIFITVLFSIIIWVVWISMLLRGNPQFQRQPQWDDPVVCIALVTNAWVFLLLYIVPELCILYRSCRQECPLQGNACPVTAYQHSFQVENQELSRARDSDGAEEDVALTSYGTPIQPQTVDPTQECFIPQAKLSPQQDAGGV

CAR-J2 EC50 [ng/mL] (PGLALA-CAR-J activation, L363 target cells) | Binder
23.5 ng/mL | B1
61.9 ng/mL | B2
583 ng/mL | B3
6.44 ng/mL | B4
397 ng/mL | B5
84.2 ng/mL | B6
30 ng/mL | B7
1.38 ng/mL | B8
82.1 ng/mL | B9
170 ng/mL | B10
8.96 ng/mL | B11
145 ng/mL | B12
152 ng/mL | B13
514 ng/mL | B14
190 ng/mL | B15
41.5 ng/mL | B16
82.6 ng/mL | B17
8.89 ng/mL | B18
190 ng/mL | B19
74.6 ng/mL | B20
2.95 ng/mL | B21
509 ng/mL | B22
78.2 ng/mL | B23
20.6 ng/mL | B24
183 ng/mL | B25
15.7 ng/mL | B26

biological target: T1, human GPRC5D; test: cell ELISA, CHO hu GPRC5D (EC/IC50 rel)
Experimental: Stable transfected CHO clones expressing either human GPRCSD or cynomolgus GPRCSD or murine GPRCSD or human GPRCSA were used to analyze the binding of potential lead candidate antibodies as IgGs. In detail, 10⁴ cells (viability≥98%) were seeded into 384 well-microtiter plates (BD Poly D-Lysin, #356662, volume: 25 μl/well) using fresh culture medium. After overnight incubation at 37° C., 25 μl/well dilutions of antibodies were added (15×1:3 dilutions in 1×PBS, assay conc. starts at 30 μg/ml) to the cells for 2 hours at 4° C. After one washing step using 90 μl/well PBST (10×PBS, Roche, #11666789001+0.1% Tween 20), cells were subsequently fixed by the addition of 50 μl/well 0.05% glutaraldehyde (Sigma Cat. No: G5882 in 1×PBS) for 10 min at room temperature (RT). After three additional washing steps using 90 μl/well PBST, secondary antibodies were added for detection: for human antibodies goat anti-human Ig a chain antibody HRP conjugate (Millipore #AP502P) diluted 1:2000 in blocking buffer (1×PBS (Roche #11666789001)+2% BSA (Bovine Serum Albumin Fraction V, fatty acid free, Roche, #10735086001)+0.05% Tween 20) was used (25 μl/well). […] After incubation for 1 h at RT and three additional washing steps using 90 μl/well PBST, 25 μl/well TMB substrate was added (Roche order no. 11835033001) for 10 min and color development to final ODs was determined by measurement at 370 nm/492 nm.
For the characterization of the humanization variants of the VH and VL domains of the GPRC5D binders the ELISA protocol as described above was used (see Example 7). The data are summarized in the table 10 for the humanization variants of 5E11 and in table 11 for the humanization variants of 5F11.

EC50 | Binder
0.004 µg/mL and 0.03 nM | B1
0.0061 µg/mL and 0.04 nM | B2
0.0076 µg/mL and 0.05 nM | B3
0.0124 µg/mL and 0.08 nM | B4
0.0041 µg/mL and 0.03 nM | B5
0.0046 µg/mL and 0.03 nM | B6
0.0104 µg/mL and 0.07 nM | B7
0.0037 µg/mL and 0.02 nM | B8
0.0066 µg/mL and 0.04 nM | B9
0.0078 µg/mL and 0.05 nM | B10
0.0063 µg/mL and 0.04 nM | B11
0.0029 µg/mL and 0.02 nM | B12
0.0078 µg/mL and 0.05 nM | B13
0.0107 µg/mL and 0.07 nM | B14
0.004 µg/mL and 0.03 nM | B15
0.0055 µg/mL and 0.04 nM | B16
0.0074 µg/mL and 0.05 nM | B17
0.009 µg/mL and 0.06 nM | B18
0.0026 µg/mL and 0.02 nM | B19
0.0037 µg/mL and 0.02 nM | B20
0.0059 µg/mL and 0.04 nM | B21
0.0062 µg/mL and 0.04 nM | B22
0.0045 µg/mL and 0.03 nM | B23
0.0094 µg/mL and 0.06 nM | B24
0.009 µg/mL and 0.06 nM | B25
0.0031 µg/mL and 0.02 nM | B26
